According to the supplement of paper PMC9732359:
± gives the uncertainty stated by the source.

Experiment: protein stability index of a GFP-peptide fusion (yeast GPS) (PSI 1-4); higher = more stable; sorted into four equal gates, so the index is relative within each strain
Summary of the method: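 Tiled yeast protein peptides of 17 residues were each joined downstream of GFP, on plasmids that also express Cherry. The pooled library was maintained in yeast, and mid-log cultures in leucine-free medium were sorted into four equal gates on the GFP/Cherry ratio. Plasmids from every gate were amplified by PCR and sequenced on Illumina, with barcodes linking reads to strains. The protein stability index of a peptide is its gate-number-weighted read frequency summed over the gates.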

Sequence | protein stability index (doa10∆) | protein stability index (pdr5∆) | protein stability index (san1∆) | protein stability index (ubr1∆)
MPNSSLQPFYSQPTAAG [DSN1] | 2.33 ± 0.076 | 2.71 ± 0.067 | 2.44 ± 0.056 | 2.78 ± 0.064
MPPKEDWEKYKAPLEDD [RPT1] | 3.21 ± 0.12 | 3.29 ± 0.21 | 3.38 ± 0.069 | 3.27 ± 0.19
MPVAPTMEVKSFPILDQ [YMR129W/POM152] | 1.36 ± 0.1 | 1.29 ± 0.11 | 1.2 ± 0.2 | 1.22 ± 0.093
MQRQQQGISGSQQNIVP [SNF2] | 2.91 ± 0.059 | 3.14 ± 0.05 | 3.19 ± 0.046 | 3.01 ± 0.047
MRNFSKQNQDSKHNERN [YDL088C/ASM4] | 3.01 ± 0.11 | 3.32 ± 0.14 | 2.46 ± 0.09 | 3.34 ± 0.093
MRQQSKELQQLQKQILT [SMC1] | 3.32 ± 0.13 | 3.05 ± 0.074 | 3.29 ± 0.039 | 3.17 ± 0.049
MSAQKAPKWYPSEDVAA [RPL6A] | 2.03 ± 0.12 | 2.35 ± 0.13 | 1.57 ± 0.27 | 2.1 ± 0.071
MSDTEAPVEVQEDFEVV [RPS5] | 3.23 ± 0.1 | 3.24 ± 0.15 | 3.35 ± 0.078 | 3.09 ± 0.086
MSETLPRSDDLEATWNF [CDC53] | 3.05 ± 0.17 | 3.39 ± 0.15 | – | 2.81 ± 0.15
MSEVITITKRNGAFQNS [RRP4] | 2.33 ± 0.083 | 2.31 ± 0.076 | 2.79 ± 0.067 | 2.18 ± 0.059
MSFSSLYKTFFKRNAVF [QCR9] | 1.67 ± 0.066 | 1.33 ± 0.053 | 1.34 ± 0.091 | 1.32 ± 0.048
MSGGGNHVAKGLMKLGT [SMC4] | – | 3.56 ± 0.3 | – | –
MSISLESSKALADSLDR [DIS3] | 2.53 ± 0.067 | 2.8 ± 0.074 | 2.52 ± 0.096 | 2.45 ± 0.071
MSKVMKPSNGKGSRKSS [SNF12] | 2.92 ± 0.091 | 3.27 ± 0.11 | 3.02 ± 0.11 | 3.232 ± 0.029
MSLKDKLLIQIDELSNG [SMC1] | 2.27 ± 0.084 | 2.34 ± 0.11 | 3.08 ± 0.11 | 2.52 ± 0.1
MSMSSTVIKFRAGVCEY [RPN13] | – | 2.58 ± 0.18 | 2.22 ± 0.13 | –
MSPLECRNILGVTSLIK [RPP1] | 2.23 ± 0.052 | 1.96 ± 0.054 | 1.84 ± 0.079 | 2.08 ± 0.044
MSPNHGTFGGDGMYSES [FAS2] | 1.87 ± 0.075 | 2.34 ± 0.064 | 2.8 ± 0.14 | 2.43 ± 0.064
MSSQISSLIPHCITSIT [MTR3] | 1.77 ± 0.061 | 2.08 ± 0.061 | 2.07 ± 0.073 | 2.47 ± 0.075
MTDRYSFSLTTFSPSGK [PRE8] | – | 3.16 ± 0.25 | – | –
MTKTITVAHIQYDFKAV [RPN14] | 2.42 ± 0.083 | 3.09 ± 0.095 | 2.4 ± 0.063 | 2.71 ± 0.043
MTMASKSLEVVNADTVG [NSL1] | 2.96 ± 0.078 | 2.82 ± 0.075 | 2.7 ± 0.068 | 2.38 ± 0.053
MTMNGIPVKLLNEAQGH [SMD3] | 3.2 ± 0.12 | 3.39 ± 0.16 | 2.76 ± 0.091 | 3.1 ± 0.11
MTRILPQQSRYISFIKD [RPN2] | 2.16 ± 0.057 | 2.6 ± 0.057 | 1.87 ± 0.067 | 1.92 ± 0.053
MTSIGTGYDLSNSVFSP [PRE10] | 2.77 ± 0.085 | 2.91 ± 0.11 | 2.23 ± 0.27 | 2.8 ± 0.12
MTTVSGRDAFHLRVRVH [RPL10] | 1.33 ± 0.16 | – | – | –

Sequence | protein stability index (doa10∆) | protein stability index (pdr5∆) | protein stability index (san1∆) | protein stability index (ubr1∆)
MVKLIVMLCTLTGYQNN [YJL039C/NUP192] | 1.9 ± 0.12 | 1.52 ± 0.075 | 1.99 ± 0.11 | 1.5 ± 0.095
MVNVPKTRKTYCKGKTC [RPL42A] | 1.42 ± 0.15 | 1.41 ± 0.1 | 1.99 ± 0.25 | 1.35 ± 0.075
MVTENPQRLTVLRLATN [MCD1] | 2.25 ± 0.069 | 2.32 ± 0.056 | 2.3 ± 0.062 | 2.38 ± 0.051
MVVQNSPVSSVHTANFS [MED2] | 2.12 ± 0.1 | 2.67 ± 0.075 | 2.01 ± 0.099 | 2.75 ± 0.054
MYQEWEDETVKVAQLRQ [NSL1] | 3.63 ± 0.085 | 3.47 ± 0.076 | 3.372 ± 0.032 | 3.5 ± 0.07
NADFQKPWFATVNGQAR [FAS1] | 2.41 ± 0.066 | 2.37 ± 0.11 | 2.45 ± 0.082 | 2.87 ± 0.1
NAEKYFNNGDDDDYGDE [RPC31] | 3.18 ± 0.099 | 2.67 ± 0.13 | 3.07 ± 0.066 | 3.16 ± 0.073
NAQLSCITKQDGFKIYD [PUP2] | 3.04 ± 0.16 | 3.17 ± 0.12 | 3.12 ± 0.098 | 3.07 ± 0.1
NATLTPNDSNDEKVTIL [SWI1] | 3.02 ± 0.059 | 3.22 ± 0.061 | 3.1 ± 0.066 | 3.11 ± 0.04
NDFFIIYYTPAFFHLFA [YJL039C/NUP192] | 1.41 ± 0.058 | 1.57 ± 0.043 | 1.62 ± 0.073 | 1.58 ± 0.042
NDILVLMESEREARRLR [RPS28A] | 1.56 ± 0.12 | 2.94 ± 0.079 | 2.08 ± 0.16 | 2.7 ± 0.097
NDIPLGSGQPDNDTVVT [SRB8] | 3.3 ± 0.12 | 3.18 ± 0.16 | 2.51 ± 0.14 | 3.12 ± 0.28
NDKQGFPMKQGVLLPTR [RPS6A] | 2.75 ± 0.098 | 3.06 ± 0.14 | 2.79 ± 0.075 | 2.57 ± 0.12
NDLDEDDIYDISLLKNR [RPN4] | 2.87 ± 0.12 | 3.2 ± 0.11 | 3.23 ± 0.14 | 3.22 ± 0.2
NDNDITVKENESDSKLQ [UBP6] | 3.48 ± 0.12 | 3.24 ± 0.096 | 3.15 ± 0.071 | 3.35 ± 0.081
NDNENIVNNDLPTTVVS [MED2] | 2.55 ± 0.053 | 2.8 ± 0.05 | 2.63 ± 0.042 | 2.89 ± 0.039
NDSENNSSEEDKKKGQN [ITC1] | 2.24 ± 0.073 | 2.53 ± 0.11 | 2.68 ± 0.12 | 2.86 ± 0.1
NDVQGIDDVQTIKVVKR [RPP1] | 3.08 ± 0.064 | 2.62 ± 0.066 | 2.69 ± 0.053 | 2.81 ± 0.056
NDWKLETERLISQSQLG [SIN4] | 3.42 ± 0.096 | 3.11 ± 0.14 | 3.3 ± 0.068 | 3.53 ± 0.19
NECIEERVPKTQLDKLR [SMB1] | 3.1 ± 0.051 | 3.07 ± 0.062 | 3.136 ± 0.03 | 3.24 ± 0.046
NECVCTPYNADFDGDEM [RPO31] | 3.06 ± 0.069 | 3.18 ± 0.069 | 3.06 ± 0.049 | 3.11 ± 0.09
NEGAASSNPQSAYVKAF [SMC1] | 2.62 ± 0.051 | 2.6 ± 0.053 | 2.5 ± 0.032 | 2.69 ± 0.027
NEIESRQLTSLGSKKEL [SNU114] | 3.17 ± 0.075 | 3.28 ± 0.078 | 3.31 ± 0.092 | 3.37 ± 0.058
NELLDLTESQTETYISD [RPN5] | 3.17 ± 0.073 | 3.35 ± 0.069 | 3.12 ± 0.046 | 3.21 ± 0.069
NEVSLAIKKSSMKMELL [SMC2] | 2.69 ± 0.071 | 2.49 ± 0.082 | 3.34 ± 0.12 | 2.21 ± 0.075
NEYVIKTPVFTTGGDYI [YMR129W/POM152] | 1.88 ± 0.062 | 2.07 ± 0.053 | 1.91 ± 0.075 | 1.99 ± 0.053

Sequence | protein stability index (doa10∆) | protein stability index (pdr5∆) | protein stability index (san1∆) | protein stability index (ubr1∆)
NEYYPMCEQALSALFTI [YCS4] | 2.2 ± 0.062 | 2.65 ± 0.088 | 2.47 ± 0.077 | 2.39 ± 0.045
NFADKYDEVKKHWGGGI [RPL8A] | 2.66 ± 0.21 | 3.2 ± 0.12 | 2.97 ± 0.099 | 3.05 ± 0.14
NFEAALFAKSSSKKEYM [GAL11] | 1.99 ± 0.085 | 2.52 ± 0.084 | 2.17 ± 0.1 | 2.67 ± 0.058
NFENDNENNSNGGEDTS [REC8] | 2.93 ± 0.2 | 2.64 ± 0.27 | 2.65 ± 0.16 | 2.81 ± 0.16
NFFQAPQDYVLERVKRI [YML031W/NDC1] | 2.81 ± 0.064 | 2.62 ± 0.045 | 2.9 ± 0.068 | 2.77 ± 0.036
NFGFGIDEHIDLGIKYD [RPL11A] | 2.59 ± 0.1 | 2.51 ± 0.16 | 2.39 ± 0.11 | 2.39 ± 0.11
NFLDAPGHVNFMDETAV [SNU114] | 3.26 ± 0.16 | 3.28 ± 0.11 | 3.29 ± 0.068 | 3.08 ± 0.11
NFLRLPASNILRRTTQR [YDL116W/NUP84] | 3.08 ± 0.27 | – | 3.25 ± 0.13 | –
NFLSVITNKHQEGLAKF [RPN2] | – | – | – | 3.17 ± 0.14
NFQDLSYLSETLISRIS [YML103C/NUP188] | 2.38 ± 0.082 | 2.51 ± 0.079 | 2.04 ± 0.093 | 2.32 ± 0.074
NFQISKKMDDYIHRIGR [PRP28] | 3.12 ± 0.24 | – | 3.21 ± 0.13 | –
NFSGLNGGITNTATNAL [YOR098C/NUP1] | 3.15 ± 0.12 | 2.91 ± 0.13 | 2.84 ± 0.084 | 3.34 ± 0.11
NGFMHAGTTDNSFIKAN [RPN2] | 1.24 ± 0.055 | 1.33 ± 0.045 | 1.35 ± 0.082 | 1.26 ± 0.051
NGFSFTKFNHNKEKSNS [YOR098C/NUP1] | 2.69 ± 0.082 | 2.98 ± 0.075 | 2.77 ± 0.039 | 2.57 ± 0.052
NGGITNTATNALRPSDI [YOR098C/NUP1] | 2.63 ± 0.13 | 2.69 ± 0.14 | 2.11 ± 0.12 | 2.84 ± 0.12
NGGNSVITLAEYEKRNH [SRP68] | 3.57 ± 0.12 | 3.28 ± 0.14 | 3.44 ± 0.1 | 3.38 ± 0.12
NGIIMNGTLIGCVSYSP [YMR153W/NUP53] | 1.99 ± 0.066 | 1.95 ± 0.076 | 2.46 ± 0.21 | 2.24 ± 0.083
NGIVDQVLVTTNQDGLK [RPB2] | 2.55 ± 0.092 | 2.18 ± 0.1 | 2.61 ± 0.088 | 1.81 ± 0.055
NGLKDQLNEERSRYRRE [YIL149C/MLP2] | 2.77 ± 0.19 | 2.5 ± 0.22 | – | 2.86 ± 0.17
NHFKDTYGFSILDIVIN [FAS1] | 3.41 ± 0.12 | 3.28 ± 0.11 | 3.33 ± 0.091 | 3.29 ± 0.088
NHKSKDNNNGDDDDEDD [SKP1] | 3.13 ± 0.075 | 3.14 ± 0.069 | 3.16 ± 0.05 | 3.14 ± 0.049
NIAQMIPGMSNMMNQVG [SRP54] | 2.47 ± 0.064 | 2.6 ± 0.076 | 2.67 ± 0.06 | 2.7 ± 0.078
NIETGENHNGQSISNEN [SWI3] | 2.59 ± 0.26 | 3.14 ± 0.12 | 3.06 ± 0.12 | 3.13 ± 0.12
NIGQQQVKKPRKQRVKK [SWI1] | 3.47 ± 0.12 | 3.35 ± 0.13 | 3.42 ± 0.084 | 3.48 ± 0.11
NIIEKAMDYAISIENIV [RPN12] | 3.15 ± 0.13 | 3.29 ± 0.088 | 2.96 ± 0.094 | 3.07 ± 0.071
NIKHKHTSIRETLENGE [SMC2] | 1.46 ± 0.12 | 1.74 ± 0.21 | 1.54 ± 0.2 | 1.68 ± 0.24
